Tests used:
[1] = target: T1, rFVIII (Homo sapiens, UniProt P00451); test: confirmatory binding assay in filtration plate format using 14C-rFVIII; details: for Total dpm / 0.5M CaCl2 % total / 2% acetic acid % total / 2% acetic acid dpm / 0.5M CaCl2 dpm / beads % total / beads dpm: Table 3; for Total dpm / beads % total / beads dpm: 14C-rFVIII 20 nM; for 0.5M CaCl2 % total / 2% acetic acid % total / 2% acetic acid dpm / 0.5M CaCl2 dpm: 14C-rFVIII 20 nM in PPF, 5 mg beads; for 0.5M CaCl2 dpm: 3.0 × 10^15 DPM/mole, 5° C.; for beads % total / beads dpm: remaining on beads after washes
Description: Confirmatory binding assays were performed in a filtration plate format using individual peptide sequences synthesized directly onto the TOYOPEARL AF amino 650 M resin, at a final substitution density of 0.1 mmole/g resin. A slurry of each individual peptide sequence was prepared using deionized water. A 100 μL volume of beads (corresponding to 5 mg) was loaded into each well of the filtration plate (MULTISCREEN Assay System, Millipore, Bedford, Mass.), in triplicate for each peptide sequence. Beads were washed with 20% ethanol and incubated overnight with equilibration buffer (20 mM imidazole, 10 mM
CaCl2, 0.105 M NaCl, pH 6.9). A 100 μL aliquot of ^14 C-rFVIII diluted in neat PPF to a final concentration of 20-30 nM was loaded into each well and incubated for 1 hour at 5° C. Filtrate (unbound ^14 C-rFVIII) was collected into a microtiter plate and transferred to liquid scintillation vials for dpm counting. Beads were washed sequentially with: 100 μL of equilibration buffer for 15 minutes, 200 μL of 0.5 M CaCl2 (in equilibration buffer), 200 μL of 1.0 M CaCl2 (in equilibration buffer), and 200 uL of 2% by volume glacial acetic acid in water, for 1 hour each at 5° C. Scintillation counting on the unbound ^14 C-rFVIII (plus equilibration buffer wash), salt and acid washes, as well as on the beads was then performed and the overall mass balance calculated.
Beads presenting the appropriate peptide sequence on the surface were placed in the filtration plate wells and incubated sequentially with equilibration buffer, ^14 C-rFVIII in PPF, equilibration buffer, 0.5 M CaCl2 wash, 1.0 M CaCl2 wash and 2% acetic acid wash. After each incubation, filtrate was collected in microtiter plates, and dpm counted on each
In Table 3, the ^14 C-rFVIII was loaded at 20 nM (in PPF) and the radiolabeling yield was at 3.0×10^15 dpm/mole. In Table 4, the ^14 C-rFVIII was loaded at 30 nM (in PPF) and the radiolabeling yield was at 5.0×10^15 dpm/mole.

[2] = target: T1, rFVIII; test: column format binding assay, rFVIII mass per fraction by sandwich capture ELISA for the light chain; details: for 0.5M CaCl2 ng / 0.5M CaCl2 % total / 2% acetic acid % total / 2% acetic acid ng / Flow through % total / Total ng / Flow through ng: Table 5; for Flow through ng: 10,000 ng rFVIII in 1:10 PPF injected, 5° C.; for ELISA results % total: Table 9, 0.5M CaCl2 fraction
Description: Immunoassay on rFVIII using a sandwich capture ELISA for the light chain and activity assay using a chromogenic substrate (COATEST Factor VIII kit from diaPharma, Franklin, Ohio) were performed on a BIOMEK® automated liquid handling system from Beckman Instruments (Brea, Calif.). The monoclonal antibody for rFVIII light chain (known as C7F7), the ELISA assay standard (lot A70K019), and the control for the activity assay (lot A70A001 @ 140 IU/mL) were from the Bayer Corporation (Berkeley, Calif.). The standard for the activity assay was at 11.2 IU/mL (Bayer, Clayton, N.C.), calibrated against the MEGA 1 standard, which is a working standard used by American manufacturers for measuring factor VIII activity (21).
Additional confirmatory binding assay and performance of the discovered binding peptides in terms of total rFVIII and activity recovery was performed in a column chromatographic format on a microbore HPLC. The resins were packed into 0.4×5 cm columns (Thomson, Springfield, Va.) and tested on the MICHROM HPLC system (Michrom BioResources, Auburn, Calif.). The elution program for the trials utilized the following method. The column was pre-equilibrated with equilibration buffer (as above). A 1 mL aliquot of 1:10 PPF followed by 1 mL of rFVIII (10,000 ng) in 1:10 PPF were injected and allowed sufficient time to flow through the column using equilibration buffer. The column was then washed with step elutions of 0.5 M and 1.0 M CaCl2 in equilibration buffer. The column was exposed to equilibration buffer. Remaining protein was eluted with 2% by volume glacial acetic acid in water. Columns were kept at 5° C. during the chromatographic runs. For each 1 mL injection (equilibration buffer, 1:10 PPF and 10,000 ng rFVIII in 1:10 PPF), the chromatographic cycle was run for 45 minutes (injection, flow through, 0.5 M CaCl2, 1.0 M CaCl2, equilibration buffer, 2% acetic acid, equilibration buffer).
A Gilson FC204 fraction collector at the HPLC outlet collected individual eluates for further analysis. Each collection tube had 100 μL hSA added to it to stabilize the rFVIII. Fractions collected from the 2% acetic acid eluates were neutralized with 2 M Tris, pH 10.5 to bring the pH to neutrality. The fractions were analyzed for total protein by the integration of the absorbance at 280 nm, for rFVIII by immunoassay (sandwich capture ELISA), and for rFVIII activity by a chromogenic substrate assay.
Tables 5 and 6 present the results from the additional confirmatory binding assays using the column format. The chromatography method was run by injecting the samples at a flow rate of 865 μL/min (413 cm/hr). In order to provide a 10 minute residence time of sample in the column the flow was decreased to 17 μL/min (10 cm/hr) upon injection.
Following the incubation, the flow was set at 865 μL/min (413 cm/hr) for the step clutions of 0.5 M CaCl2, 1.0 M CaCl2, and 2% acetic acid. Results are expressed in terms of the total mass of rFVIII in each fraction, as determined by the sandwich capture ELISA assay for the rFVIII light chain. […] A control using a non-binding peptide sequence (IGF) is also shown for comparison--in this case, 95% of the rFVIII loaded to the column was collected in the flow through fraction. Additional controls with no

T1 sequence (P00451 20-2351): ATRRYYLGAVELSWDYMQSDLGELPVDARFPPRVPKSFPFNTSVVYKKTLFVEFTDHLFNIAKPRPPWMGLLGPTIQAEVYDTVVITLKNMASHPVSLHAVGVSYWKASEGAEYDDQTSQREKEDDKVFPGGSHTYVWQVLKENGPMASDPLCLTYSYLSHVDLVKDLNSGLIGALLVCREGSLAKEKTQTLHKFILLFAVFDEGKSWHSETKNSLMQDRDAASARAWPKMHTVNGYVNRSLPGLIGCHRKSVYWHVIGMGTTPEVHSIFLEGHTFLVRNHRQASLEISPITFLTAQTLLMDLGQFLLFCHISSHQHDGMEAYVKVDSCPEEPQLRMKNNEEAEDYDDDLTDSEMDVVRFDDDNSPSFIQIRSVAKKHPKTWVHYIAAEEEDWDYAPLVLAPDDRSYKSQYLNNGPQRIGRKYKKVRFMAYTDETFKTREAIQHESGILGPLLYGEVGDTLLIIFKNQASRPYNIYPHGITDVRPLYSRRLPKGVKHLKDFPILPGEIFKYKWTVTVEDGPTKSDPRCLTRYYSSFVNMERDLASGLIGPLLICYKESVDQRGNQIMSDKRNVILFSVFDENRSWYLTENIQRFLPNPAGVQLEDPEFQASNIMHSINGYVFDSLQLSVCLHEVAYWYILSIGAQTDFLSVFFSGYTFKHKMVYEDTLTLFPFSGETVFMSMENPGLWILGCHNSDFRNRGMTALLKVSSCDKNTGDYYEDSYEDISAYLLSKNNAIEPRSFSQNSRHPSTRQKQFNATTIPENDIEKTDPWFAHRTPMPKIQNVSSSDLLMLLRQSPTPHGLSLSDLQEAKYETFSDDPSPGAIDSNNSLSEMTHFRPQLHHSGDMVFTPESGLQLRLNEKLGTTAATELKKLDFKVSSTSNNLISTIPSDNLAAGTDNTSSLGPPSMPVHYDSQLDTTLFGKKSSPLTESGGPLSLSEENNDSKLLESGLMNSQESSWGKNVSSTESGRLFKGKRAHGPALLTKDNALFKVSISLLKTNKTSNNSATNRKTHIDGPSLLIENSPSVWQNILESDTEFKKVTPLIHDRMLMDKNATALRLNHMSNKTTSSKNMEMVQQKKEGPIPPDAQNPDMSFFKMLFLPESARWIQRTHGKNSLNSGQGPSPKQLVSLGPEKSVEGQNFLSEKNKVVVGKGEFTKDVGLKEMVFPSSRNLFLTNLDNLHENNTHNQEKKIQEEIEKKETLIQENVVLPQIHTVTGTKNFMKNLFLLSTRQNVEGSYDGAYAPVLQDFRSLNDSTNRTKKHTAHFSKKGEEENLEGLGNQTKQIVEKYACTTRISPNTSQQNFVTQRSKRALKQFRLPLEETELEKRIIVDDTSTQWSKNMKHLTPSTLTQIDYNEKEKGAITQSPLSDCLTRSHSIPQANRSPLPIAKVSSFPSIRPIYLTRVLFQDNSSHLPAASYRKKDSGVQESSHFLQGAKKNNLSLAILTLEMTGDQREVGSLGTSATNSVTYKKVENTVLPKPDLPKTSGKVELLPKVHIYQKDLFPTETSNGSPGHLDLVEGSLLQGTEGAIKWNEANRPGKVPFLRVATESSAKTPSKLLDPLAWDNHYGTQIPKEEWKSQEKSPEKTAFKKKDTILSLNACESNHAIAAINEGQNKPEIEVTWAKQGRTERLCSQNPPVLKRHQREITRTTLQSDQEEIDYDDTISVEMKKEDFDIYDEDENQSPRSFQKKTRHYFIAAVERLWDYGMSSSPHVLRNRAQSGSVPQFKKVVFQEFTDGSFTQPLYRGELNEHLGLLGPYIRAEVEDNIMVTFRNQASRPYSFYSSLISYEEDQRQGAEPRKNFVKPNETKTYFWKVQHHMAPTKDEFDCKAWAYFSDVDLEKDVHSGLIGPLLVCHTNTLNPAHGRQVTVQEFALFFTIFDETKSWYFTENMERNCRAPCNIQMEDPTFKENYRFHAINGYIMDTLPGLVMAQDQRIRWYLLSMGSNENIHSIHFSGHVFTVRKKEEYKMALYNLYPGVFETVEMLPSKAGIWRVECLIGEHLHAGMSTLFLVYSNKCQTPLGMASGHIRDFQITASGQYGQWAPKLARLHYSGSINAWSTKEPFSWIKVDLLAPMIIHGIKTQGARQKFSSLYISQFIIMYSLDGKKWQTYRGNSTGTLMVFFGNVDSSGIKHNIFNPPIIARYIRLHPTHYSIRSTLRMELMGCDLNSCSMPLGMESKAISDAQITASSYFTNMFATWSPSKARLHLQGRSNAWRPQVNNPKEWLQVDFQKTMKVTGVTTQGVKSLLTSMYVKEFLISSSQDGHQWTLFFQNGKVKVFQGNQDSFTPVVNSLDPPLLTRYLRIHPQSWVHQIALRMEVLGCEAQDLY
T1 sequence (P00451 1668-2351 limits assumed): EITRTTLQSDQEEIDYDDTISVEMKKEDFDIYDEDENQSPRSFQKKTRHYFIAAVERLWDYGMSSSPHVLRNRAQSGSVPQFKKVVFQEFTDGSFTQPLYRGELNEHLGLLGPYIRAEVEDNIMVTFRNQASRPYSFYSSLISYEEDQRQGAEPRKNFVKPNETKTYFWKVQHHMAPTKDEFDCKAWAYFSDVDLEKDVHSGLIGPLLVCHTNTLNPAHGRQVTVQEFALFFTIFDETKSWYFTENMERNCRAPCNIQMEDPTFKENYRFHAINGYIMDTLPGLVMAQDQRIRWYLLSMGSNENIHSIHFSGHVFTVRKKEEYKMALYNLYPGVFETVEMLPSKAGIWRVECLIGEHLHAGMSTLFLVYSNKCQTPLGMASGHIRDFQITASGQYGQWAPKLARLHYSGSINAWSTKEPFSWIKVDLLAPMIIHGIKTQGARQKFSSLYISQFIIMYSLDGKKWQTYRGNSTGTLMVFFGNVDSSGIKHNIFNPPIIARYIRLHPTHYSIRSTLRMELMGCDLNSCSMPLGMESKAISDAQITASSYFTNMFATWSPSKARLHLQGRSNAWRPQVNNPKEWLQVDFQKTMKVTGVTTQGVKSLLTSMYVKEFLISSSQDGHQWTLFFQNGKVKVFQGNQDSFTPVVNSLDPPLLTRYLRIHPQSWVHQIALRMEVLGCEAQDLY

Row | Substance | Total dpm [1] [dpm] | 0.5M CaCl2 % total [1] [%] | 2% acetic acid % total [1] [%] | 2% acetic acid dpm [1] [dpm] | 0.5M CaCl2 dpm [1] [dpm] | beads % total [1] [%] | beads dpm [1] [dpm] | 0.5M CaCl2 ng [2] [ng] | 0.5M CaCl2 % total [2] [%] | 2% acetic acid % total [2] [%] | 2% acetic acid ng [2] [ng] | Flow through % total [2] [%] | Total ng [2] [ng] | Flow through ng [2] [ng] | ELISA results % total [2] [%] | binding of rFVIII in words ([1]; plate format)
1 | 3 (YVQGLW) [compound 3] | 2020 | 74 | 19 | 379 | 1502 | 7 | 140 |  |  |  |  |  |  |  |  | 
2 | 4 (FRPHWA) [compound 4] | 3744 | 78 | 17 | 631 | 2905 | 6 | 209 | 5510 | 90 | 3 | 160 | 4 | 6123 | 225 | 90 | 
3 | 8 (RPRW) [compound 8] | 4098 | 86 | 9 | 377 | 3543 | 4 | 178 | 5449 | 97 | 0 | 10 | 2 | 5623 | 122 | 97 | 
4 | 16 (WRRHRY) [compound 16] | 2897 | 21 | 45 | 1302 | 608 | 34 | 986 | 338 | 9 | 71 | 2550 | 2 | 3615 | 56 |  | 
5 | 17 (FYRFWN) [compound 17] | 3009 | 17 | 72 | 2156 | 498 | 12 | 355 | 1622 | 37 | 54 | 2336 | 3 | 4348 | 127 |  | 
6 | 18 (WLWSHN) [compound 18] | 2608 | 25 | 67 | 1752 | 651 | 8 | 205 | 2362 | 56 | 18 | 760 | 0 | 4200 | 8 |  | 
7 | IGF [reference compound] | 274 | 80 | 15 | 41 | 219 | 5 | 14 | 201 | 4 | 0 | 10 | 95 | 4962 | 4719 |  | non binder

Reference: patent US6191256A, “Recombinant factor VIII binding peptides” (Bayer Corporation, priority 1998, dated 2001)
